Measured values published in patent US20220411514A1, “ANTI-GAL3 ANTIBODIES AND METHODS OF USE FOR INSULIN RESISTANCE” (TrueBinding, Inc., priority 2021, published 2022).

B1: mTB001: anti-Gal3 antibody mTB001 (antibody)
heavy: QIQLVQSGPELKKPGETVKISCKASGYTFTNYGMNWVKQAPGKGLKWMGWINTNTGEPTYVEEFKGRFAFSLETSASTAYLQINNLKNEDTATYFCAPYDNFFAYWGQGTLVTVSAAKTTPPSVYPLAPVCGDTTGSSVTLGCLVKGYFPEPVTLTWNSGSLSSGVHTFPAVLQSDLYTLSSSVTVTSSTWPSQSITCNVAHPASSTKVDKKIEPRGPTIKPCPPCKCPAPNAAGGPSVFIFPPKIKDVLMISLSPIVTCVVVDVSEDDPDVQISWFVNNVEVHTAQTQTHREDYNSTLRVVSALPIQHQDWMSGKEFKCKVNNKDLGAPIERTISKPKGSVRAPQVYVLPPPEEEMTKKQVTLTCMVTDFMPEDIYVEWTNNGKTELNYKNTEPVLDSDGSYFMYSKLRVEKKNWVERNSYSCSVVHEGLHNHHTTKSFSRTPGK
light: DIVITQDELSNPVTSGESVSISCRSSKSLLYKDGKTYLNWFLQRPGQSPQLLIYLMSTHASGVSDRFSGSGSGTDFTLEISRVKAEDVGVYYCQQLVDYPLTFGAGTKLELKRADVAPTVSIFPPSSEQLTSGGASVVCFLNNFYPKDINVKWKIDGSERQNGVLNSWTDQDSKDSTYSMSSTLTLTKDEYERHNSYTCEATHKTSTSPIVKSFNRNEC
modifications: mTB001 heavy chain peptide sequence; mTB001 light chain peptide sequence
B2: 19B5.2E6: anti-Gal3 antibody (antibody)
heavy: QIQLVQSGPELKKPGETVKISCKASGYTFTTYAMSWVKQAPGKGLKWMGWINTYSGVPTYADDLKGRFAFSLETSASTAYLQINNLKNEDTATYFCARGPYAMDYWGQGTSVTVSSAKTTPPSVYPLAPVCGDTTGSSVTLGCLVKGYFPEPVTLTWNSGSLSSGVHTFPAVLQSDLYTLSSSVTVTSSTWPSQSITCNVAHPASSTKVDKKIEPRGPTIKPCPPCKCPAPNAAGGPSVFIFPPKIKDVLMISLSPIVTCVVVDVSEDDPDVQISWFVNNVEVHTAQTQTHREDYNSTLRVVSALPIQHQDWMSGKEFKCKVNNKDLGAPIERTISKPKGSVRAPQVYVLPPPEEEMTKKQVTLTCMVTDFMPEDIYVEWTNNGKTELNYKNTEPVLDSDGSYFMYSKLRVEKKNWVERNSYSCSVVHEGLHNHHTTKSFSRTPGK
light: DIQMTQTTSSLSASLGDRVTISCSASQGINNYLNWYQQKPDGTVKLLIYYASSLHSGVPSRFSGSGSGTDYSLTISNLEPEDIATYYCQQYSQVPYTFGSGTKLEIKRADVAPTVSIFPPSSEQLTSGGASVVCFLNNFYPKDINVKWKIDGSERQNGVLNSWTDQDSKDSTYSMSSTLTLTKDEYERHNSYTCEATHKTSTSPIVKSFNRNEC
modifications: 19B5.2E6 heavy chain peptide sequence; 19B5.2E6/23H9.2E4 light chain peptide sequence
notes: anti-Gal3 antibody
B3: 23H9.2E4: anti-Gal3 antibody (antibody)
heavy: B2 heavy
light: B2 light
modifications: 23H9.2E4 heavy chain peptide sequence; 19B5.2E6/23H9.2E4 light chain peptide sequence
notes: anti-Gal3 antibody

Assays:
Human Gal3 peptides = target: T1, Human Gal3 peptides (Homo sapiens, UniProt P17931); assay: Gal3 peptide binding ELISA (Example 8); settings: antibody 5 μg/mL
T1 construct: purchased LifeTein custom order
Method in brief: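 Reformatted hIgG4 (S228P) anti-Gal3 antibodies were tested at 5 μg/mL for 1 h at room temperature against immobilised human Gal3 peptides (≥100 μg/mL coating) or protein (1 μg/mL coating) on BSA-blocked plates. Bound antibody read by peroxidase goat anti-human IgG with TMB at 450 nm.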

hGal3 peptide = target: T2, hGal3 peptide (Homo sapiens, UniProt P17931); assay: Gal3 peptide library binding ELISA (Example 2)
T2 construct: a library of 24 amino acid peptides representing portions of Gal3
Method: To identify the epitopes to which Gal3 antibodies with and without Gal3-INSR blocking activity bound, a library of 24 amino acid peptides representing portions of Gal3, depicted in FIG. 18, was produced and the ability of each peptide to bind Gal3 antibodies was evaluated by ELISA. At least 2 μg/ml of hGal3 peptide in 50 μl of PBS or 0.1 μg/ml of full-length human Gal3 protein (GenScript) and human Galectin-3 protein (Acro Biosystems, GA3-H5129) were diluted in PBS (Corning, 21-030-CM) to concentrations of at least 2 μg/ml or 0.1 μg/ml, respectively, and added to the wells of a 96-well ELISA plate (Thermo Fisher, 44-2404-21). After incubating the plate at 4° C. overnight, the plate was washed three times with PBST (PBS with 0.05% Tween 20 [VWR, 0777]). The plate was then blocked for an hour with 2% BSA (EMD Millipore, 126609) in PBST at room temperature with gentle rocking. Thereafter, the 2% BSA in PBST was discarded and human Galectin-3 hybridoma supernatants or antibodies were diluted in 2% BSA in PBST to concentrations of at least 0.1 μg/ml and added to the wells. The plate was incubated for an hour at room temperature with gentle rocking and then washed three times with PBST. Afterwards, Goat Anti-Mouse IgG-HRP (Jackson ImmunoResearch, 115-036-1461) or Goat Anti-Rat IgG HRP (Abcam, ab205720) diluted in 2% BSA in PBST (1:4000) were added to the wells. The plate was incubated for 30 minutes to 1 hour at room temperature with gentle rocking and then washed three times with PBST. TMB substrate (Thermo Scientific, 34029) was then added to each well. The reaction was stopped with 1M HCl (JT Baker, 5620-02) and read using a plate reader (Molecular Devices) at absorbance of 450 nm.

From the text for NOD/ShiLtJ mice: To assess the therapeutic potential of anti-GAL3 antibody in Type I diabetes, a mouse model of diabetes type I was used. Briefly, seven-weeks-old female NOD/ShiLtJ mice (Jackson lab (001976)) and control group animals NOR/LtJ (Jackson Lab (002050)) were housed in standard disposable cages with filter tops at room temperature with a 6:00-18:00 day-night cycle. Mice were allowed to rest for a week before initiating glucose monitoring. The antibody treatment was initiated when glucose levels reach 250-400 (mg/dL) for two consecutive days. To establish glucose levels, the blood samples were collected from tail vein of the experimental animals following housing in clean cages with water and no food for 4-6 hours. The collected samples were analyzed by HemoCue Glucose 201 Analyzer and cuvettes (Mercedes Scientific 110706). The animals were dosed twice a week (10 mg/kg) with anti-GAL3 antibodies (mTB001) or PBS control. […] At the end stage, the plasma samples were collected from symptomatic animals. C-peptide levels were determined by Alpco Mouse C-peptide ELISA kit (Alpco, 80-CPTMS-E01).

| Molecule | blood glucose levels (NOD/ShiLtJ mice; 10 mg/kg twice a week) | survival (NOD/ShiLtJ mice; 10 mg/kg twice a week) | circulating C-peptide levels (NOD/ShiLtJ mice; end stage plasma) | binding to Gal3 peptide 1 (SEQ ID NO: 3) (Human Gal3 peptides) | binding to Gal3 peptide 7 (SEQ ID NO: 9) (Human Gal3 peptides) | binding to Gal3 peptide 1 (amino acids 1-20, SEQ ID NO: 3) (hGal3 peptide) | binding to Gal3 peptide 7 (amino acids 61-80, SEQ ID NO: 9) (hGal3 peptide) | binding to Gal3 peptide 6 (SEQ ID NO: 8) (Human Gal3 peptides) | binding to Gal3 peptide 8 (SEQ ID NO: 10) (Human Gal3 peptides) |
| --- | --- | --- | --- | --- | --- | --- | --- | --- | --- |
| B1 | stabilizing the levels of blood glucose | prolonged survival | restoring C-peptide levels | – | – | – | – | – | – |
| B2 | – | – | – | bound | bound | bound | bound | – | – |
| B3 | – | – | – | bound | bound | bound | bound | bound | bound |
